Patent publication US20260055182A1 (CIS BIOPHARMA, published 2026)

What was measured:
[1] = target: T1, human FcyRI/CD64 (human, UniProt P12314 16-288, limits assumed); test: SPR; KD of LV40 over KD of Rituximab (control)
T1 construct: Bought protein, reversibly immobilised for SPR; also called human CD64
Protocol: (§1) Effect on interaction with Fc receptor was analyzed by SPR [Instrument: Biacore T200 (C1q and FcRn) and 8K+ for (FcγR)]. Analysis temperature: 25° C., sample compartment: 12° C., Sensor chips: CM3 (C1q) and C1 (FcγR and FcRn).
(§2) Concentration range was adjusted to optimal window depending on results of qualitative analysis. The study was conducted by Biaffin GmbH & Co KG (Bielefeld, Germany).

[2] = target: T2, human FcRn / FCGRT&B2M (human, UniProt P55899 24-297; P61769 21-119); test: SPR; KD of LV40 over KD of Rituximab (control)
T2 construct: Bought protein, reversibly immobilised for SPR at pH 6.0; also called neonatal receptor
T2 sequence (P55899 24-297 limits assumed, chain 1 of 2): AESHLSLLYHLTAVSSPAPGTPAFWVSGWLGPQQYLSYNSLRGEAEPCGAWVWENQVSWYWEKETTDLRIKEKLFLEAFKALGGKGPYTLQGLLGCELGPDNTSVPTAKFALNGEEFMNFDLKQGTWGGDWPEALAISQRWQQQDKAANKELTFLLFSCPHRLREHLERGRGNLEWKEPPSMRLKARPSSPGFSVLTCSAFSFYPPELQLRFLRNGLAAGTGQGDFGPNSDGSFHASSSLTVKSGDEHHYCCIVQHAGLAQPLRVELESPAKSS
T2 sequence (P61769 21-119 limits assumed, chain 2 of 2): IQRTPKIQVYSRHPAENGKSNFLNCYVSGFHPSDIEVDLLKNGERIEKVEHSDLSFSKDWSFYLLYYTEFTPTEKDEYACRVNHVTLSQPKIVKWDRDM
Protocol: as §1, §2

[3] = target: T3, L1-CAM recombinant protein (His Tag), human (human, UniProt P32004 20-1120); test: SPR (Biacore 8K) as in Example 6, new batch of L1-CAM on the chip
T3 construct: Bought protein; also called CD171; human L1-CAM; not shown: His tag
T3 sequence (P32004 20-1120 limits assumed): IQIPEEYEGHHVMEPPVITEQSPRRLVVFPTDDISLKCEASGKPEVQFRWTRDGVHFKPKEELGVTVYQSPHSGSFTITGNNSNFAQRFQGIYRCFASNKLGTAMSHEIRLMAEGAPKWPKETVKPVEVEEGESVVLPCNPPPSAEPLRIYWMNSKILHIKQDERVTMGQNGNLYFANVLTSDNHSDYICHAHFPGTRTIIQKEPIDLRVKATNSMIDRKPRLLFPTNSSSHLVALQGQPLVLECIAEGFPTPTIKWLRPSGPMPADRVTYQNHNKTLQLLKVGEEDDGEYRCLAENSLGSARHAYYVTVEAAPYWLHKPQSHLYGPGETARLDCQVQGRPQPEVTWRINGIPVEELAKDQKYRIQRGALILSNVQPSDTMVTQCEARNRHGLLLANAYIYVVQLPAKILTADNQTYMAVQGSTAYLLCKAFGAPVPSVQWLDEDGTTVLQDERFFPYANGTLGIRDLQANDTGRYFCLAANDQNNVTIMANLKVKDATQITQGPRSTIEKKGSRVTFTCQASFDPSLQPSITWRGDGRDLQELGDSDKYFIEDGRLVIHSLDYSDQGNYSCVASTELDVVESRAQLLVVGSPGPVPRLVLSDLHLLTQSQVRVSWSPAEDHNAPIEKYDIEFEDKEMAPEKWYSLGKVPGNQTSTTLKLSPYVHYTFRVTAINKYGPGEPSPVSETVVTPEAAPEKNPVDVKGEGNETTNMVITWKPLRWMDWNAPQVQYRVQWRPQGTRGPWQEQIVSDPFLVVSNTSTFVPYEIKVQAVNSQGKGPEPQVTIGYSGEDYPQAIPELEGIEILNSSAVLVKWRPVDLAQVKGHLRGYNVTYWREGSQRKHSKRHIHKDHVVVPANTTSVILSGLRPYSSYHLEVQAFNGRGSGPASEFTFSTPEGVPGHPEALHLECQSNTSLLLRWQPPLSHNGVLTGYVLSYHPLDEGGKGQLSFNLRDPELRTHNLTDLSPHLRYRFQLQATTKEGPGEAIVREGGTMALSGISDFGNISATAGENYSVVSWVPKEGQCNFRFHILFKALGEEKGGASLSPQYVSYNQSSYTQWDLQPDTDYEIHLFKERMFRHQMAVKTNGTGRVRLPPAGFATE

[4] = target: T1, human FcyRI/CD64; test: SPR (Biacore 8K+), receptor reversibly immobilised, antibody as analyte
Protocol: as §1, §2

[5] = target: T2, human FcRn / FCGRT&B2M; test: SPR (Biacore T200), pH 6.0, FcRn reversibly immobilised, antibody as analyte
Protocol: as §1, §2

[6] = target: T4, CD20 on HEK293 cells (human, UniProt P11836 1-297); test: cell microarray confirmation screen, control vector; cells of LV40 under CD20 are blank
T4 construct: whole, on cells; Positive control target for the Rituximab biosimilar; also called clone 0038
T4 sequence (looked up): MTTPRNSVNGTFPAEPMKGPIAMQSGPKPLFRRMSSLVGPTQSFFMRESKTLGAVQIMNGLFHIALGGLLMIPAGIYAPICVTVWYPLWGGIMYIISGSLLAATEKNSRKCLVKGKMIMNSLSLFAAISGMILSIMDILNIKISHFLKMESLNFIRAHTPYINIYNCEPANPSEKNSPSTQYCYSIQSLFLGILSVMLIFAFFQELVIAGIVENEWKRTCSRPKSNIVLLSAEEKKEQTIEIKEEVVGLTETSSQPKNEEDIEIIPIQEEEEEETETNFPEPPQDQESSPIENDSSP
Protocol: (§3) Vectors encoding all interactions identified in the library screen, plus control vectors encoding CD20 (positive control) and EGFR (transfection and negative control), were arrayed and expressed in HEK293 cells on new slides. Confirmation screen slides and analyses were carried out as for the library screen either after cell fixation (n=2) or in the absence of fixation (n=1). […] Binding to target-expressing cells and non-transfected cells was again assessed by fluorescence imaging.

[7] = target: T5, EGFR on HEK293 cells (human, UniProt P00533 25-1210); test: cell microarray confirmation screen, negative control vector; cells of LV40 under EGFR are blank
T5 construct: whole, on cells; also called hEGFR
Protocol: as §3

[8] = target: human C1q purified protein (human, UniProt P02745 23-245; P02746 28-253; P02747 29-245); test: SPR (Biacore T200), C1q reversibly immobilised, antibody as analyte; table token '-' at the 120th table, row 16, column 3
Chain of human C1q purified protein (P02745 23-245, chain 1 of 3): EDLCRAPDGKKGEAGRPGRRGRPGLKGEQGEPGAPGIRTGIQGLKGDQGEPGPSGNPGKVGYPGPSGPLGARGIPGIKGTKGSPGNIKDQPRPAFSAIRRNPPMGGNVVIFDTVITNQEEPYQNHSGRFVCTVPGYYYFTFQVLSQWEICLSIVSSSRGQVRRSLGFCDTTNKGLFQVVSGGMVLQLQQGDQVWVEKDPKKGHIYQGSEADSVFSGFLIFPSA
Chain of human C1q purified protein (P02746 28-253, chain 2 of 3): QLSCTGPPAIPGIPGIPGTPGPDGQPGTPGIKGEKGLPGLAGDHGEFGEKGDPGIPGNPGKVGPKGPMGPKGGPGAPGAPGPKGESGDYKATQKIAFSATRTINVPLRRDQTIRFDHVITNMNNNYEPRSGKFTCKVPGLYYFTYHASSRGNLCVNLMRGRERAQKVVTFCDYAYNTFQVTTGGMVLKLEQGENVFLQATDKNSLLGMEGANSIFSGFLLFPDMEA
Chain of human C1q purified protein (P02747 29-245, chain 3 of 3): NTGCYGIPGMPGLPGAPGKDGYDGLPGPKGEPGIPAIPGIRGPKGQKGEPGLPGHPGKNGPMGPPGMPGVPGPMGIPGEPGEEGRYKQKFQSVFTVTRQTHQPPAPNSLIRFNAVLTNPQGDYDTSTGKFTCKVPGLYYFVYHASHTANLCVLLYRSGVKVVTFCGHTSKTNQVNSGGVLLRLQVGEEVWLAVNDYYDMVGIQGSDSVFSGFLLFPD
Protocol: as §1

[9] = target: T6, human FcyRIIA/CD32a (H167) (human, UniProt P12318 36-218); test: SPR (Biacore 8K+), receptor reversibly immobilised, antibody as analyte; table token '-' at the 120th table, row 10, column 3
T6 construct: Bought protein, reversibly immobilised for SPR; also called human CD32a (H167)
T6 sequence (looked up): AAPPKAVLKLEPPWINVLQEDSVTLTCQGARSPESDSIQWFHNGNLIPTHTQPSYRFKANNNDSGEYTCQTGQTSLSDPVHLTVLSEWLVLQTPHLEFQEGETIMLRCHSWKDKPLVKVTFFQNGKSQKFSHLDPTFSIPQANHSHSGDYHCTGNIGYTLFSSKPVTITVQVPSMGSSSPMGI
Protocol: as §1

[10] = target: T7, human FcyRIIIA/CD16a (V176) (human, UniProt P08637 17-208); test: SPR (Biacore 8K+), receptor reversibly immobilised, antibody as analyte; table token '-' at the 120th table, row 12, column 3
T7 construct: Bought protein, reversibly immobilised for SPR; also called human CD16a (V176)
T7 sequence (P08637 17-208 F176V limits assumed): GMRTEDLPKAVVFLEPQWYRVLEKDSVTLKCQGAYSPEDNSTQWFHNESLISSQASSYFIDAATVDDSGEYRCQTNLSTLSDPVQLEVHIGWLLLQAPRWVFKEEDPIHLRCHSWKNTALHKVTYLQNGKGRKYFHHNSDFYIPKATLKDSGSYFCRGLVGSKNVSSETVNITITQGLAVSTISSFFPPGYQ
Protocol: as §1

T1 sequence (P12314 16-288 limits assumed): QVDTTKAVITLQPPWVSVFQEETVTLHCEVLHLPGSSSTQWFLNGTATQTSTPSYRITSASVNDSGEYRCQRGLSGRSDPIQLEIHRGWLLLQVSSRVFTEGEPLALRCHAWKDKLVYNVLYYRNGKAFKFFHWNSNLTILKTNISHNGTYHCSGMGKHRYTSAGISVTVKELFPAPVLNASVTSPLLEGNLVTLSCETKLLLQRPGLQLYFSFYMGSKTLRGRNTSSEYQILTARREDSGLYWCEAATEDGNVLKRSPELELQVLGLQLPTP

B1: huCE7 LV40 (antibody, human IgG1, kappa, L234A L235A, N297A)
heavy: QVQLVQSGAEVKKPGASVKVSCKASGYTFTGYFMHWVRQAPGQGLEWIGEINPSNARTNYNERFQGRVTLTVDKSISTAYMELSRLRSDDTAVYYCARDYYGTSYNFDYWGQGTLVTVSSASTKGPSVFPLAPSSKSTSGGTAALGCLVKDYFPEPVTVSWNSGALTSGVHTFPAVLQSSGLYSLSSVVTVPSSSLGTQTYICNVNHKPSNTKVDKKVEPKSCDKTHTCPPCPAPEAAGGPSVFLFPPKPKDTLMISRTPEVTCVVVDVSHEDPEVKFNWYVDGVEVHNAKTKPREEQYASTYRVVSVLPVLHQDWLNGKEYKCKVSNKALPASIEKTISKAKGQPREPQVYTLPPSREEMTKNQVSLTCLVKGFYPSDIAVEWESNGQPENNYKTTPPVLDSDGSFFLYSKLTVDKSRWQQGNVFSCSVMHEALHNHYTQKSLSLSPGK
light: DIQMTQSPSSLSASVGDRVTITCKANEDINARLAWYQQKPGKAPKLLISGATNLVTGVPSRFSGSGSGKDYTLTISSLQPEDFATYYCQQYYSTPFTFGQGTKLEIKRTVAAPSVFIFPPSDEQLKSGTASVVCLLNNFYPREAKVQWKVDNALQSGNSQESVTEQDSKDSTYSLSSTLTLSKADYEKHKVYACEVTHQGLSSPVTKSFNRGEC
notes: Variant 7AG (IgG1, N297A L234A L235A P331S) with HC WH33F, GH55A, TH307P and LC NL31A, WL92Y; also called huCE7 variant LV40; huCE7-variant40
- ratio KD (KD sample / KD control) [1]: 389
- ratio KD (KD sample / KD control) [2]: 1.2
- Kd [3]: 0.0644 nM
- koff [3]: 0.000472 s⁻¹
- kon [3]: 7.32e+06 M⁻¹ s⁻¹
- Kd [4]: 15.8 nM
- Kd [5]: 459 nM
- binding result [6]: no binding (tested: 20 µg/mL)
- binding result [7]: no binding (tested: 20 µg/mL)
- binding result [8]: no binding
- binding result [9]: no binding
- binding result [10]: no binding
